Laboratory results reported in the supplement of paper PMC6757056.
± gives the standard deviation of the averaged measurements.

B1: library; a variant is named by its letters at N, in order (parent)
chain: GCUGUCACCGGUGUAUUACCCUAGUGGUCGACCGGUCUGAUGAGUCUNNNNNNAGACGAAACAGC

Tests used:
hypoxanthine [1] = variants of: B1; test: normalized RNA/DNA level with ligand (relative to sTRSVctl = 100) (log10 (% of sTRSVctl)); ligand: hypoxanthine (xanthine aptamer); higher = less ribozyme self-cleavage, higher mRNA level; details: ligand concentration (+) RNA-Seq: 5 mM, HEK293T, reporter: mCherry (pCS4076), ligand present: yes
Procedure, shortened: (§1)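 HEK293T cells were transfected with library plasmids carrying ribozyme switches linked to an mCherry reporter, or an eGFP reporter in some ligand experiments, at 4 µg per well of a 6-well plate, with any ligand added 1 h beforehand. After 72 h, total RNA was extracted with EDTA, reverse-transcribed, amplified, barcoded and sequenced. RNA level was defined as RNA reads over DNA reads, normalized to a spiked-in non-cleaving sequence or to the top-ranked sequences. That value was multiplied by 100 and converted to log10, the top set was 25 sequences, and only sequences with ≥100 DNA reads were retained.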

hypoxanthine [2] = variants of: B1; test: normalized RNA/DNA level without ligand (relative to sTRSVctl = 100) (log10 (% of sTRSVctl)); ligand: hypoxanthine (xanthine aptamer); higher = less ribozyme self-cleavage, higher mRNA level; details: HEK293T, reporter: mCherry (pCS4076), ligand present: no
Procedure, shortened: as §1

| Variant | normalized RNA/DNA level with ligand (log10) (hypoxanthine [1]) | normalized RNA/DNA level without ligand (log10) (hypoxanthine [2]) |
| --- | --- | --- |
| GCUGUCACCGGUGUAUUACCCUAGUGGUCGACCGGUCUGAUGAGUCUGCGGUUAGACGAAACAGC [GCGGUU] | 1.919 ± 0.018 | 1.72 ± 0.056 |
| GCUGUCACCGGUGUAUUACCCUAGUGGUCGACCGGUCUGAUGAGUCUACGGUUAGACGAAACAGC [ACGGUU] | 1.84 ± 0.024 | 1.36 ± 0.064 |
| GCUGUCACCGGUGUAUUACCCUAGUGGUCGACCGGUCUGAUGAGUCUUCGUUCAGACGAAACAGC [UCGUUC] | 2 ± 0.031 | 1.95 ± 0.086 |
| GCUGUCACCGGUGUAUUACCCUAGUGGUCGACCGGUCUGAUGAGUCUUCGUUAAGACGAAACAGC [UCGUUA] | 1.961 ± 0.0027 | 1.736 ± 0.0095 |
| GCUGUCACCGGUGUAUUACCCUAGUGGUCGACCGGUCUGAUGAGUCUUCGUUGAGACGAAACAGC [UCGUUG] | 1.98 ± 0.095 | 1.785 ± 0.01 |
| GCUGUCACCGGUGUAUUACCCUAGUGGUCGACCGGUCUGAUGAGUCUACGUUAAGACGAAACAGC [ACGUUA] | 1.867 ± 0.015 | 1.62 ± 0.095 |
| GCUGUCACCGGUGUAUUACCCUAGUGGUCGACCGGUCUGAUGAGUCUACGUUCAGACGAAACAGC [ACGUUC] | 1.94 ± 0.039 | 1.79 ± 0.024 |
| GCUGUCACCGGUGUAUUACCCUAGUGGUCGACCGGUCUGAUGAGUCUCCGUACAGACGAAACAGC [CCGUAC] | 1.92 ± 0.047 | 1.66 ± 0.037 |
| GCUGUCACCGGUGUAUUACCCUAGUGGUCGACCGGUCUGAUGAGUCUCCGUAUAGACGAAACAGC [CCGUAU] | 1.91 ± 0.033 | 1.749 ± 0.0044 |
| GCUGUCACCGGUGUAUUACCCUAGUGGUCGACCGGUCUGAUGAGUCUCCGUAGAGACGAAACAGC [CCGUAG] | 1.82 ± 0.024 | 1.35 ± 0.099 |
| GCUGUCACCGGUGUAUUACCCUAGUGGUCGACCGGUCUGAUGAGUCUCCGUAAAGACGAAACAGC [CCGUAA] | 1.95 ± 0.098 | 1.67 ± 0.1 |
| GCUGUCACCGGUGUAUUACCCUAGUGGUCGACCGGUCUGAUGAGUCUGCGUCGAGACGAAACAGC [GCGUCG] | 1.89 ± 0.037 | 1.53 ± 0.041 |
| GCUGUCACCGGUGUAUUACCCUAGUGGUCGACCGGUCUGAUGAGUCUGCGUCAAGACGAAACAGC [GCGUCA] | 1.96 ± 0.023 | 1.68 ± 0.069 |
| GCUGUCACCGGUGUAUUACCCUAGUGGUCGACCGGUCUGAUGAGUCUGCGUCUAGACGAAACAGC [GCGUCU] | 1.98 ± 0.085 | 1.772 ± 0.0055 |
| GCUGUCACCGGUGUAUUACCCUAGUGGUCGACCGGUCUGAUGAGUCUGCGUCCAGACGAAACAGC [GCGUCC] | 1.93 ± 0.029 | 1.59 ± 0.039 |
| GCUGUCACCGGUGUAUUACCCUAGUGGUCGACCGGUCUGAUGAGUCUCCGUGCAGACGAAACAGC [CCGUGC] | 1.9 ± 0.057 | 1.54 ± 0.08 |
| GCUGUCACCGGUGUAUUACCCUAGUGGUCGACCGGUCUGAUGAGUCUUCGUCAAGACGAAACAGC [UCGUCA] | 1.986 ± 0.016 | 1.807 ± 0.0051 |
| GCUGUCACCGGUGUAUUACCCUAGUGGUCGACCGGUCUGAUGAGUCUUCGUCUAGACGAAACAGC [UCGUCU] | 1.93 ± 0.049 | 1.87 ± 0.062 |
| GCUGUCACCGGUGUAUUACCCUAGUGGUCGACCGGUCUGAUGAGUCUUCGUCCAGACGAAACAGC [UCGUCC] | 1.98 ± 0.026 | 1.95 ± 0.0024 |
| GCUGUCACCGGUGUAUUACCCUAGUGGUCGACCGGUCUGAUGAGUCUUCGUCGAGACGAAACAGC [UCGUCG] | 1.99 ± 0.042 | 1.85 ± 0.049 |
| GCUGUCACCGGUGUAUUACCCUAGUGGUCGACCGGUCUGAUGAGUCUCCGUUGAGACGAAACAGC [CCGUUG] | 1.88 ± 0.045 | 1.589 ± 0.0096 |

| Variant | normalized RNA/DNA level with ligand (log10) (hypoxanthine [1]) | normalized RNA/DNA level without ligand (log10) (hypoxanthine [2]) |
| --- | --- | --- |
| GCUGUCACCGGUGUAUUACCCUAGUGGUCGACCGGUCUGAUGAGUCUCCGUUCAGACGAAACAGC [CCGUUC] | 1.96 ± 0.079 | 1.82 ± 0.099 |
| GCUGUCACCGGUGUAUUACCCUAGUGGUCGACCGGUCUGAUGAGUCUCCGUUAAGACGAAACAGC [CCGUUA] | 1.94 ± 0.021 | 1.75 ± 0.094 |
| GCUGUCACCGGUGUAUUACCCUAGUGGUCGACCGGUCUGAUGAGUCUACGUACAGACGAAACAGC [ACGUAC] | 1.9 ± 0.041 | 1.55 ± 0.036 |
| GCUGUCACCGGUGUAUUACCCUAGUGGUCGACCGGUCUGAUGAGUCUACGUAUAGACGAAACAGC [ACGUAU] | 1.86 ± 0.057 | 1.39 ± 0.053 |
| GCUGUCACCGGUGUAUUACCCUAGUGGUCGACCGGUCUGAUGAGUCUACGUGCAGACGAAACAGC [ACGUGC] | 1.81 ± 0.023 | 1.515 ± 0.0062 |
| GCUGUCACCGGUGUAUUACCCUAGUGGUCGACCGGUCUGAUGAGUCUGCGUAAAGACGAAACAGC [GCGUAA] | 1.83 ± 0.035 | 1.49 ± 0.054 |
| GCUGUCACCGGUGUAUUACCCUAGUGGUCGACCGGUCUGAUGAGUCUACGUCUAGACGAAACAGC [ACGUCU] | 1.95 ± 0.042 | 1.65 ± 0.066 |
| GCUGUCACCGGUGUAUUACCCUAGUGGUCGACCGGUCUGAUGAGUCUACGUCAAGACGAAACAGC [ACGUCA] | 1.94 ± 0.038 | 1.64 ± 0.032 |
| GCUGUCACCGGUGUAUUACCCUAGUGGUCGACCGGUCUGAUGAGUCUACGUCCAGACGAAACAGC [ACGUCC] | 1.957 ± 0.0037 | 1.847 ± 0.015 |
| GCUGUCACCGGUGUAUUACCCUAGUGGUCGACCGGUCUGAUGAGUCUACGUCGAGACGAAACAGC [ACGUCG] | 1.88 ± 0.041 | 1.41 ± 0.11 |
| GCUGUCACCGGUGUAUUACCCUAGUGGUCGACCGGUCUGAUGAGUCUUCGUACAGACGAAACAGC [UCGUAC] | 1.94 ± 0.055 | 1.77 ± 0.031 |
| GCUGUCACCGGUGUAUUACCCUAGUGGUCGACCGGUCUGAUGAGUCUUCGUAUAGACGAAACAGC [UCGUAU] | 1.92 ± 0.045 | 1.61 ± 0.024 |
| GCUGUCACCGGUGUAUUACCCUAGUGGUCGACCGGUCUGAUGAGUCUUCGUAAAGACGAAACAGC [UCGUAA] | 1.87 ± 0.04 | 1.53 ± 0.066 |
| GCUGUCACCGGUGUAUUACCCUAGUGGUCGACCGGUCUGAUGAGUCUUCGUGUAGACGAAACAGC [UCGUGU] | 1.82 ± 0.059 | 1.33 ± 0.041 |
| GCUGUCACCGGUGUAUUACCCUAGUGGUCGACCGGUCUGAUGAGUCUCCGUCCAGACGAAACAGC [CCGUCC] | 1.98 ± 0.067 | 1.91 ± 0.057 |
| GCUGUCACCGGUGUAUUACCCUAGUGGUCGACCGGUCUGAUGAGUCUCCGUCUAGACGAAACAGC [CCGUCU] | 1.97 ± 0.036 | 1.83 ± 0.063 |
| GCUGUCACCGGUGUAUUACCCUAGUGGUCGACCGGUCUGAUGAGUCUCCGUCAAGACGAAACAGC [CCGUCA] | 1.909 ± 0.008 | 1.855 ± 0.0032 |
| GCUGUCACCGGUGUAUUACCCUAGUGGUCGACCGGUCUGAUGAGUCUCCGUCGAGACGAAACAGC [CCGUCG] | 1.89 ± 0.061 | 1.689 ± 0.011 |
| GCUGUCACCGGUGUAUUACCCUAGUGGUCGACCGGUCUGAUGAGUCUGCGUGCAGACGAAACAGC [GCGUGC] | 1.949 ± 0.016 | 1.619 ± 0.006 |
| GCUGUCACCGGUGUAUUACCCUAGUGGUCGACCGGUCUGAUGAGUCUUCGGUUAGACGAAACAGC [UCGGUU] | 1.938 ± 0.006 | 1.61 ± 0.04 |
| GCUGUCACCGGUGUAUUACCCUAGUGGUCGACCGGUCUGAUGAGUCUGCGUUCAGACGAAACAGC [GCGUUC] | 1.93 ± 0.059 | 1.58 ± 0.11 |
